Assay results taken from patent US20070105771A1 (Y S THERAPEUTICS, published 2007).

What was measured:
Assay in all cases: peptide microarray
[1] = molecular target: T1, human CD26-derived 13 mer peptide 103 (human)
T1 peptide: VRVPYPKAGAVNP
Description: (§1) The overnight incubation was followed by three washings with each of PBS buffer pH 7.5 and water. The microarrays were then scanned using ArrayWorx-Microarray Scanner.
(§2) The SPOT recognition software package ArrayPro was used for data analysis. The mean of signal intensities from 3 identical subarrays on each microarray image was used for data evaluation.

[2] = molecular target: T2, human CD26-derived 13 mer peptide 114 (human)
T2 peptide: DSLSSVTNATSIQ
Description: as §1, §2

[3] = molecular target: T3, human CD26-derived 13 mer peptide 44 (human)
T3 peptide: IYDLNKRQLITEE
Description: as §1, §2

[4] = molecular target: T4, human CD26-derived 13 mer peptide 127 (human)
T4 peptide: LCDVTWATQERIS
Description: as §1, §2

[5] = molecular target: T5, human CD26-derived 13 mer peptide 24 (human)
T5 peptide: TFDEFGHSINDYS
Description: as §1, §2

[6] = molecular target: T6, human CD26-derived 13 mer peptide 35 (human)
T6 peptide: LEYNYVKQWRHSY
Description: as §1, §2

[7] = molecular target: T7, human CD26-derived 13 mer peptide 106 (human)
T7 peptide: KAGAVNPTVKFFV
Description: as §1, §2

[8] = molecular target: T8, human CD26-derived 13 mer peptide 45 (human)
T8 peptide: DLNKRQLITEERI
Description: as §1, §2

[9] = molecular target: T9, human CD26-derived 13 mer peptide 52 (human)
T9 peptide: NNTQWVTWSPVGH
Description: as §1, §2

[10] = molecular target: T10, human CD26-derived 13 mer peptide 82 (human)
T10 peptide: AYSALWWSPNGTF
Description: as §1, §2

[11] = molecular target: T11, human CD26-derived 13 mer peptide 22 (human)
T11 peptide: LENSTFDEFGHSI
Description: as §1, §2

[12] = molecular target: T12, human CD26-derived 13 mer peptide 1 (human)
T12 peptide: YLKNTYRLKLYSL
Description: as §1, §2

[13] = molecular target: T13, human CD26-derived 13 mer peptide 116 (human)
T13 peptide: SVTNATSIQITAP
Description: as §1, §2

[14] = molecular target: T14, human CD26-derived 13 mer peptide 108 (human)
T14 peptide: VNPTVKFFVVNTD
Description: as §1, §2

[15] = molecular target: T15, human CD26-derived 13 mer peptide 67 (human)
T15 construct: also called LPSYRITWTGKED
T15 peptide: LPSYRITWTGKED
Description: as §1, §2

[16] = molecular target: T16, human CD26-derived 13 mer peptide 23 (human)
T16 peptide: NSTFDEFGHSIND
Description: as §1, §2

[17] = molecular target: T17, human CD26-derived 13 mer peptide 97 (human)
T17 peptide: FYSDESLQYPKTV
Description: as §1, §2

[18] = molecular target: T18, human CD26-derived 13 mer peptide 70 (human)
T18 peptide: TWTGKEDIIYNGI
Description: as §1, §2

[19] = molecular target: T19, human CD26-derived 13 mer peptide 78 (human)
T19 construct: also called VYEEEVFSAYSAL
T19 peptide: VYEEEVFSAYSAL
Description: as §1, §2

[20] = molecular target: T20, human CD26-derived 13 mer peptide 26 (human)
T20 peptide: FGHSINDYSISPD
Description: as §1, §2

[21] = molecular target: T21, human CD26-derived 13 mer peptide 2 (human)
T21 peptide: KNTYRLKLYSLRW
Description: as §1, §2

[22] = molecular target: T22, human CD26-derived 13 mer peptide 57 (human)
T22 peptide: VGHKLAYVWNNDI
Description: as §1, §2

[23] = molecular target: T23, human CD26-derived 13 mer peptide 99 (human)
T23 peptide: ESLQYPKTVRVPY
Description: as §1, §2

[24] = molecular target: T24, human CD26-derived 13 mer peptide 118 (human)
T24 peptide: ATSIQITAPASML
Description: as §1, §2

[25] = molecular target: T25, human CD26-derived 13 mer peptide 75 (human)
T25 peptide: NGITDWVYEEEVF
Description: as §1, §2

[26] = molecular target: T26, human CD26-derived 13 mer peptide 30 (human)
T26 peptide: SISPDGQFILLEY
Description: as §1, §2

[27] = molecular target: T27, human CD26-derived 13 mer peptide 53 (human)
T27 peptide: TQWVTWSPVGHKL
Description: as §1, §2

[28] = molecular target: T28, human CD26-derived 13 mer peptide 34 (human)
T28 peptide: ILLEYNYVKQWRH
Description: as §1, §2

[29] = molecular target: T29, human CD26-derived 13 mer peptide 79 (human)
T29 peptide: EEEVFSAYSALWW
Description: as §1, §2

[30] = molecular target: T30, human CD26-derived 13 mer peptide 43 (human)
T30 peptide: YDIYDLNKRQLIT
Description: as §1, §2

[31] = molecular target: T31, human CD26-derived 13 mer peptide 62 (human)
T31 peptide: NDIYVKIEPNLPS
Description: as §1, §2

[32] = molecular target: T32, human CD26-derived 13 mer peptide 4 (human)
T32 peptide: RLKLYSLRWISDH
Description: as §1, §2

[33] = molecular target: T33, human CD26-derived 13 mer peptide 120 (human)
T33 peptide: QITAPASMLIGDH
Description: as §1, §2

[34] = molecular target: T34, human CD26-derived 13 mer peptide 63 (human)
T34 peptide: IYVKIEPNLPSYR
Description: as §1, §2

[35] = molecular target: T35, human CD26-derived 13 mer peptide 124 (human)
T35 peptide: LIGDHYLCDVTWA
Description: as §1, §2

[36] = molecular target: T36, human CD26-derived 13 mer peptide 36 (human)
T36 peptide: YNYVKQWRHSYTA
Description: as §1, §2

[37] = molecular target: T37, human CD26-derived 13 mer peptide 7 (human)
T37 peptide: LRWISDHEYLYKQ
Description: as §1, §2

[38] = molecular target: T38, human CD26-derived 13 mer peptide 77 (human)
T38 peptide: DWVYEEEVFSAYS
Description: as §1, §2

[39] = molecular target: T39, human CD26-derived 13 mer peptide 122 (human)
T39 peptide: PASMLIGDHYLCD
Description: as §1, §2

[40] = molecular target: T40, human CD26-derived 13 mer peptide 17 (human)
T40 peptide: NAEYGNSSVFLEN
Description: as §1, §2

[41] = molecular target: T41, human CD26-derived 13 mer peptide 5 (human)
T41 peptide: KLYSLRWISDHEY
Description: as §1, §2

[42] = molecular target: T42, human CD26-derived 13 mer peptide 128 (human)
T42 peptide: DVTWATQERISLQ
Description: as §1, §2

B1: rhuMAb 411 (antibody, human IgG1, kappa, V domains shown)
VH: EVQLVESGAGVKQPGGTLRLTCTASGFSLTTYGVHWVRQAPGKGLEWVGVIWGDGRTDYDAAFMSRVTISKDTSKSTVYLQMNSLRAEDTAVYYCMRNRHDWFDYWGQGTTVTVSS
VL: DILLTQSPSSLSATPGERATITCRASQGIRNNLNWYQQKPGQAPRLLIYYSSNLQSGVPSRFSGSGSGTDFTLTISRLQPEDVAAYYCQQSIKLPFTFGSGTKVEIKR
notes: also called X411
[1]
  Mean Signal Value: 0
[2]
  Mean Signal Value: 0.00481
[3]
  Mean Signal Value: 0
[4]
  Mean Signal Value: 0.00962
[5]
  Mean Signal Value: 0.00962
[6]
  Mean Signal Value: 84.7
[7]
  Mean Signal Value: 0.245
[8]
  Mean Signal Value: 0
[9]
  Mean Signal Value: 0.12
[10]
  Mean Signal Value: 67.8
[11]
  Mean Signal Value: 0.0192
[12]
  Mean Signal Value: 3.5
[13]
  Mean Signal Value: 0.0385
[14]
  Mean Signal Value: 1.33
[15]
  Mean Signal Value: 0.00962
[16]
  Mean Signal Value: 0.00481
[17]
  Mean Signal Value: 0.0144
[18]
  Mean Signal Value: 1
[19]
  Mean Signal Value: 7.86
[20]
  Mean Signal Value: 0.0337
[21]
  Mean Signal Value: 16.5
[22]
  Mean Signal Value: 9.67
[23]
  Mean Signal Value: 0.0865
[24]
  Mean Signal Value: 0
[25]
  Mean Signal Value: 9.38
[26]
  Mean Signal Value: 6.26
[27]
  Mean Signal Value: 0.00481
[28]
  Mean Signal Value: 15.7
[29]
  Mean Signal Value: 96.4
[30]
  Mean Signal Value: 0
[31]
  Mean Signal Value: 0.00481
[32]
  Mean Signal Value: 51.3
[33]
  Mean Signal Value: 0.0337
[34]
  Mean Signal Value: 8.12
[35]
  Mean Signal Value: 12.7
[36]
  Mean Signal Value: 28.2
[37]
  Mean Signal Value: 20.6
[38]
  Mean Signal Value: 13.7
[39]
  Mean Signal Value: 0.308
[40]
  Mean Signal Value: 0.0625
[41]
  Mean Signal Value: 43.1
[42]
  Mean Signal Value: 0.106
